# doi:10.1101/2025.10.21.683802
# Assays:
# [1] = molecular target: β2-adrenergic receptor, construct PN1 (monomeric) (UniProt P07550); test: BLI; as a14, with AP at 10 μM
# [2] = molecular target: β2-adrenergic receptor, construct PN1 (monomeric β2AR) (human) (UniProt P07550); test: BLI; as a1, monomeric β2AR with 10 µM AP; 10 µM Iso; apparent kon and koff; KD from equilibrium responses
# [3] = molecular target: AP-bound β2AR dimer (construct PN1 with AP-7-168) (UniProt P07550); test: SEC; AP-bound dimer with nucleotide-free Gs; peak fractions on SDS-PAGE, ratio of β2AR to Gα bands estimated on gels
# [4] = molecular target: β2-adrenergic receptor, construct PN1 (monomeric) (UniProt P07550); test: BLI; FLAG-tagged β2AR held through biotinylated anti-FLAG M1 Fab on SA tips with 10 μM Iso; Gs 30 nM to 10 μM with 10 μM GDP and 0.1% BSA; NH buffer, 0.01% LMNG, 0.001% CHS; 30°C; KD from equilibrium responses
substance,measurement,setting,value
heterotrimeric Gs (Gαsβ1γ2) (from UniProt P63092 1-394; P62873 1-340; P59768 1-71) (complex),Kd,[1],1700 nM
same,Kd,[2],1710 nM
same,stoichiometry N,[3],2 β2AR per Gα
same,Kd,[4],960 nM
